The nature of series [1]: Specific activity of purified β-glucosidase (G3ase), glucose release from cellotriose. In kind it is biochemical, Acetobacter xylinum subsp. sucrofermentans BPR 2001. The settings on record: purified sample; 1 U = 1 μmol glucose from G3 at 30° C. for 2 hr. The protocol:
Acetobacter xylinum subsp. sucrofermentans BPR 2001 strain was cultured in CSL-Fru medium using a jar fermenter (inner volume: 3 L, culture medium volume: 1.8 L) at 30° C. and pH5 for 68 hours. The resulting culture medium (about […] in total) was subjected to centrifugation to give its supernatant (3,600 ml). The resulting supernatant was subjected to salting-out with 60%-saturated ammonium sulfate, and the resulting precipitate was collected by centrifugation. The collected precipitate was solubilized into distilled water of 352 ml and dialyzed against distilled water (15 L). The resulting precipitate was collected and extracted three times with 20 mM sodium acetate buffer (pH5.5) containing 0.15 M NaCl. G3ase activity was found in the resulting extract. The extract was subjected to CM-Toyopearl 650M column (Tosoh Co. Ltd.; 3.2 cm in diameter, 13.3 cm in length) equilibrated with 20 mM sodium acetate buffer (pH5.5) containing 0.15 M NaCl to absorb the G3ase activity. […]
After reaction at 30° C. for 2 hr, a reaction solution (300 μl) of a glucose-measuring kit (Glucose CII test Wako: Wako Pure Chemical Industries, Ltd.) was added to the mixture, and reacted for 15 min at a room temperature, followed by the determination of an amount of glucose based on absorbance at 505 nm.

Series [2] in a line: Isoelectric point of β-glucosidase (G3ase) by IEF-PAGE. In kind it is physicochemical, Acetobacter xylinum subsp. sucrofermentans BPR 2001. The text has this: The molecular weight of β-glucosidase (G3ase) determined by SDS-PAGE was about 81,200 (FIG. 2). Its isoelectric point (pI) determined by IEF-PAGE was about 6.0 (FIG. 3).
The format of series [3] is physicochemical, Acetobacter xylinum subsp. sucrofermentans BPR 2001. The text has this: The pH stability of β-glucosidase (G3ase) was studied. […] An optimum pH was about 5.5. The thermal stability of β-glucosidase (G3ase) was also studied.

B1: β-glucosidase (G3ase): β-glucosidase purified from Acetobacter xylinum subsp. sucrofermentans BPR 2001, amino acid sequence SEQ ID NO:7 (protein, listed as Acetobacter xylinum)
chain: MRLSRKIFLLSAVACGMALAQAPAFARHAHDGGGDQADARARQVLASMSLEDKMSLLFSVDGGGFNGSVAPPGGLGSAAYLRAPQGSGLPDLQISDAGLGVRNPAHIRRNGEAVSLPSGQSTASTWDMDMARQAGVMIGREAWQSGFNILLGGGADLTRDPRGGRNFEYAGEDPLQTGRMVGSTIAGVQSQHVISTLKHYAMNDLETSRMTMSADIDPVAMRESDLLGFEIALETGHPGAVMCSYNRVNDLYACENPYLLNKTLKQDWHYPGFVMSDWGATHSSARAALAGLDQESAGDHTDARPYFRTLLAADVKAGRVPEARINDMAERVVRALFAAGLVDHPAQRGPLDVVTDTLVAQKDEEEGAVLLRNQGNILPLSPTARIAVIGGHADAGVISGGGSSQVDPIGGEAVKGPGKKEWPGDPVYFPSSPLKAMQAEAPGARITYDPGTSIASAVRAARAADVVVVYATQFTFEGMDAPSMHLDDNADALITAVAAANPRTVVVMETGDPVLMPWNSSVAGVLEAWFPGSGGGPAIARLLFGKVAPSGHLTMTFPQAESQLAHPDIAGVTADNVFEMQFHTDQELVYDEGSDVGYRWFDRNHFKPLYPFGYGLTYTTFSTDGLKVTERHGQVTATFNVHNTGTRAGVDVPQVYVGLPDGGARRLAGWQRISLAPGESRQVSVQLEPRLLAHFDGKHDRWSVPSGTFRVWLASCATDDSQQTTMHLHGRTMAP
modifications: n at positions 15741 and 15767 may be a, g, t, or c
Molecule B1 yielded a Specific activity in series [1] of 840 U/mg-portein. The “isoelectric point (pI)” value in series [2] is recorded as “about 6.0”. In addition, in series [3], the “optimum pH” value is listed as “about 5.5” and the optimum temperature entry is “about 40 °C”. In series [3] (30-minute treatment at pH 5.5), the “temperature at which inactivated” value was at least 50 °C and the “temperature at which stable” value was at most 30 °C. Moreover, in series [3] (3 h), the “remaining activity (pH stability)” value is recorded as at least 80%.

For the origin of these results see patent US6573076B1, “Gene, group of genes, and novel β-glucosidase” (Ajinomoto Co., Inc., priority 1997, dated 2003).
